# PMC6784197
# T1: hCD138 (human Syndecan-1), extracellular domain (human) (UniProt P18827)
# T1 sequence: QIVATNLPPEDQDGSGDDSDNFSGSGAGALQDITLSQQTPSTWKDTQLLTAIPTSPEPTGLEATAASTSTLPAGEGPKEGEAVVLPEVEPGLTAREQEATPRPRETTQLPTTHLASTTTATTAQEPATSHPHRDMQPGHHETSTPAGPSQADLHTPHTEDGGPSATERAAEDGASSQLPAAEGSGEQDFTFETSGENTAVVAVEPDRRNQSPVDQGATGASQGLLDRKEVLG
# Columns and labels:
# [1] = target: T1, hCD138 (human Syndecan-1), extracellular domain (human); assay: SPR; bivalent (avidity) set-up: CD138 amine-coupled to CM5 chip (240 RU), IgG as analyte 33-300 nM; Biacore T200, HBS-P+ pH 7.4, 25 °C; 1:1 Langmuir model
# [2] = target: <CD138> Hw-Lw (parent IgG); assay: SPR; monovalent (affinity) set-up: antibody captured via anti-hFc on CM5 chip, hCD138 as analyte 66-600 nM; Biacore T200, HBS-P+ pH 7.4, 25 °C; 1:1 Langmuir model
# <CD138> Ha-La = assay: as above
# <CD138> Hw-La = assay: as above
# <CD138> Hb-La = assay: as above
# <CD138> Hb-Lw = assay: as above
# <CD138> Hb-Lg = assay: as above
# <CD138> Ha-Lg = assay: as above
# <CD138> Ha-Lw = assay: as above
# <CD138> Hg-Lw = assay: SPR; monovalent (affinity): anti-CD138 IgG variants (30 nM) captured via anti-hFc on CM5; hCD138 as analyte, 66-600 nM; HBS-P+ pH 7.4, 25 °C; 1:1 Langmuir model; Biacore T200
binder,measurement,setting,value
"<CD138> Hb-Lg (antibody, V domains shown) VH: QVQLQQSGSELMMPGASVKISCKATGYTFTGYWIEWVKQRPGHGLEWIGEILPGTGRTIYNEKFKGKATFTADISSNTVQMQLSSLTSEDSAVYYCARRDYYGNFYYAMDYWGQGTSVTVSS VL: DIQMTQSTSSLSASLGDRVTISCSASQGISNYLNWYQQKPDGTVELLIYYTSSLHSGVPSRFSGSGSGTDYSLTISNLEPEDIGTYYCQQYSKLPRTFGGGTKLEIK",Kd,[1],0.0024 µM
same,koff,[1],0.0005 s⁻¹
same,kon,[1],390000 M⁻¹ s⁻¹
"<CD138> Hb-Lw (antibody, V domains shown) VH: QVQLQQSGSELMMPGASVKISCKATGYTFTGYWIEWVKQRPGHGLEWIGEILPGTGRTIYNEKFKGKATFTADISSNTVQMQLSSLTSEDSAVYYCARRDYYGNFYYAMDYWGQGTSVTVSS VL: DIQMTQSTSSLSASLGDRVTISCSASQGINNYLNWYQQKPDGTVELLIYYTSTLQSGVPSRFSGSGSGTDYSLTISNLEPEDIGTYYCQQYSKLPRTFGGGTKLEIK",Kd,[1],0.00028 µM
same,koff,[1],0.00011 s⁻¹
same,kon,[1],350000 M⁻¹ s⁻¹
"<CD138> Ha-Lw (antibody, V domains shown) VH: QVQLQQSGSELMMPGASVKISCKATGYTFSNYWIEWVKQRPGHGLEWIGEILPGTGSTIYNEKFKGKATFTADISSNTVQMQLSSLTSEDSAVYYCARRDYYGNFYYAMDYWGQGTSVTVSS VL: DIQMTQSTSSLSASLGDRVTISCSASQGINNYLNWYQQKPDGTVELLIYYTSTLQSGVPSRFSGSGSGTDYSLTISNLEPEDIGTYYCQQYSKLPRTFGGGTKLEIK",Kd,[1],0.00042 µM
same,koff,[1],7.1e-05 s⁻¹
same,kon,[1],170000 M⁻¹ s⁻¹
"<CD138> Hg-Lw (antibody, V domains shown) VH: QVQLQQSGSELMMPGASVKISCKATGYTFTGYWIEWVKQRPGHGLEWIGEILPGSGSTNYNEKFKGKATFTADISSNTVQMQLSSLTSEDSAVYYCARRDYYGNFYYAMDYWGQGTSVTVSS VL: DIQMTQSTSSLSASLGDRVTISCSASQGINNYLNWYQQKPDGTVELLIYYTSTLQSGVPSRFSGSGSGTDYSLTISNLEPEDIGTYYCQQYSKLPRTFGGGTKLEIK",Kd,[1],0.23 µM
same,koff,[1],0.051 s⁻¹
same,kon,[1],210000 M⁻¹ s⁻¹
"<CD138> Ha-La (antibody, V domains shown) VH: QVQLQQSGSELMMPGASVKISCKATGYTFSNYWIEWVKQRPGHGLEWIGEILPGTGSTIYNEKFKGKATFTADISSNTVQMQLSSLTSEDSAVYYCARRDYYGNFYYAMDYWGQGTSVTVSS VL: DIQMTQSTSSLSASLGDRVTISCSASQGINNYLNWYQQKPDGTVELLIYYTSTLHSGVPSRFSGSGSGTDYSLTISNLEPEDIGTYYCQQYSKLPRTFGGGTKLEIK",Kd,[1],0.0004 µM
same,koff,[1],6.4e-05 s⁻¹
same,kon,[1],160000 M⁻¹ s⁻¹
"<CD138> Ha-Lg (antibody, V domains shown) VH: QVQLQQSGSELMMPGASVKISCKATGYTFSNYWIEWVKQRPGHGLEWIGEILPGTGSTIYNEKFKGKATFTADISSNTVQMQLSSLTSEDSAVYYCARRDYYGNFYYAMDYWGQGTSVTVSS VL: DIQMTQSTSSLSASLGDRVTISCSASQGISNYLNWYQQKPDGTVELLIYYTSSLHSGVPSRFSGSGSGTDYSLTISNLEPEDIGTYYCQQYSKLPRTFGGGTKLEIK",Kd,[1],0.00083 µM
same,koff,[1],0.00029 s⁻¹
same,kon,[1],160000 M⁻¹ s⁻¹
"<CD138> Hb-La (antibody, V domains shown) VH: QVQLQQSGSELMMPGASVKISCKATGYTFTGYWIEWVKQRPGHGLEWIGEILPGTGRTIYNEKFKGKATFTADISSNTVQMQLSSLTSEDSAVYYCARRDYYGNFYYAMDYWGQGTSVTVSS VL: DIQMTQSTSSLSASLGDRVTISCSASQGINNYLNWYQQKPDGTVELLIYYTSTLHSGVPSRFSGSGSGTDYSLTISNLEPEDIGTYYCQQYSKLPRTFGGGTKLEIK",Kd,[1],0.00031 µM
same,koff,[1],0.00012 s⁻¹
same,kon,[1],400000 M⁻¹ s⁻¹
"hCD138 (human Syndecan-1), extracellular domain (domain or fragment) QIVATNLPPEDQDGSGDDSDNFSGSGAGALQDITLSQQTPSTWKDTQLLTAIPTSPEPTGLEATAASTSTLPAGEGPKEGEAVVLPEVEPGLTAREQEATPRPRETTQLPTTHLASTTTATTAQEPATSHPHRDMQPGHHETSTPAGPSQADLHTPHTEDGGPSATERAAEDGASSQLPAAEGSGEQDFTFETSGENTAVVAVEPDRRNQSPVDQGATGASQGLLDRKEVLG",Kd,[2],0.08 µM
same,koff,[2],0.0062 s⁻¹
same,kon,[2],77000 M⁻¹ s⁻¹
same,Kd,<CD138> Ha-La,0.24 µM
same,koff,<CD138> Ha-La,0.013 s⁻¹
same,kon,<CD138> Ha-La,55000 M⁻¹ s⁻¹
same,Kd,<CD138> Hw-La,0.071 µM
same,koff,<CD138> Hw-La,0.0061 s⁻¹
same,kon,<CD138> Hw-La,87000 M⁻¹ s⁻¹
same,Kd,<CD138> Hb-La,0.14 µM
same,koff,<CD138> Hb-La,0.025 s⁻¹
same,kon,<CD138> Hb-La,170000 M⁻¹ s⁻¹
same,Kd,<CD138> Hb-Lw,0.15 µM
same,koff,<CD138> Hb-Lw,0.027 s⁻¹
same,kon,<CD138> Hb-Lw,180000 M⁻¹ s⁻¹
same,Kd,<CD138> Hb-Lg,0.61 µM
same,koff,<CD138> Hb-Lg,0.079 s⁻¹
same,kon,<CD138> Hb-Lg,130000 M⁻¹ s⁻¹
same,Kd,<CD138> Ha-Lg,0.38 µM
same,koff,<CD138> Ha-Lg,0.045 s⁻¹
same,kon,<CD138> Ha-Lg,120000 M⁻¹ s⁻¹
same,Kd,<CD138> Ha-Lw,0.19 µM
same,koff,<CD138> Ha-Lw,0.015 s⁻¹
same,kon,<CD138> Ha-Lw,76000 M⁻¹ s⁻¹
"hCD138 (human Syndecan-1, R&D Systems 2780-TS) (domain or fragment) QIVATNLPPEDQDGSGDDSDNFSGSGAGALQDITLSQQTPSTWKDTQLLTAIPTSPEPTGLEATAASTSTLPAGEGPKEGEAVVLPEVEPGLTAREQEATPRPRETTQLPTTHLASTTTATTAQEPATSHPHRDMQPGHHETSTPAGPSQADLHTPHTEDGGPSATERAAEDGASSQLPAAEGSGEQDFTFETSGENTAVVAVEPDRRNQSPVDQGATGASQGLLDRKEVLG",fold reduction of affinity against the parent Hw-Lw,<CD138> Hg-Lw,> 100 fold
